We go through two molecules from US7713932B2, “Calcitonin drug-oligomer conjugates, and uses thereof” (Biocon Limited, priority 2001, dated 2010).

Holding throughout (type): in vitro ADME
The nature of data set [1]: Enzymatic stability: 0.5 U/mL chymotrypsin digest. The note with it: chymotrypsin 0.5 U/mL, pH 7.4, Non-Formulated, replicate columns, read-out: % Remaining Following 0.5 U/mL Chymotrypsin Digest. The procedure: (§1) Compounds, supplied as lyophilized powders, are resuspended in 10 mM phosphate buffer pH 7.4 and then submitted for concentration determination by HPLC. The phosphate buffer is used to create a solution with a pH that is optimum for activity of each particular gut enzyme. Aliquots of the compound thus prepared are transferred to 1.7 mL microcentrifuge tubes and shaken in a 37° C. water bath for 15 minutes to allow compounds to equilibrate to temperature. After 15 minutes, 2 μL of the appropriate concentrated gut enzyme is added to each tube to achieve the final concentration desired. Chymotrypsin and trypsin are resuspended in 1 mM HCl. Also, as a control, compounds are treated with 2 μL of 1 mM HCl. Immediately following additions, 100 μL of sample is removed from the control tube and quenched with either 25 μL of chymotrypsin/trypsin quenching solution (1:11% TFA:Isopropanol). This sample will serve as T=0 min. A sampling procedure is repeated at various time intervals depending on the gut enzyme used. Chymotrypsin has 15, 30 and 60 minute samples. Trypsin has 30, 60, 120 and 180 minute samples. Once all points have been acquired, a final sample is removed from the control tube to make sure that observed degradation is not temperature or buffer related. The chymotrypsin and trypsin samples may be collected directly into HPLC vials. RP-HPLC (acetonitrile gradient) is used to determine AUC for each sample and % degradation is calculated based from the T=0 min control. The results are provided below in Tables 1 to 4.

A further data set deals with Chymotrypsin. The data set is described as follows: Enzymatic stability: 0.5 U/mL chymotrypsin digest. The note with it: for % Remaining Following 0.5 U/mL Chymotrypsin Digest: replicate columns; for % Remaining, Control: Control tube (1 mM HCl, no enzyme). The procedure:
as §1

Data set [2] can be described thus: Enzymatic stability: 1 U/mL trypsin digest. The settings on record: trypsin 1 U/mL, pH 7.4, Non-Formulated, replicate columns, read-out: % Remaining following 1 U/mL Trypsin Digest. The procedure: as §1
Another data set relates to Trypsin. In words: Enzymatic stability: 1 U/mL trypsin digest. The note with it: for % Remaining, Control: Control tube (1 mM HCl, no enzyme); for % Remaining following 1 U/mL Trypsin Digest: Non-Formulated, replicate columns. The procedure:
as §1

Several values for one entry are separate records, joined by “and”; a condition that tells them apart may be missing. Identical values can stand only once.

As for `COCCOCCOCCOCCOCCOCCOCCOCCCCCCCC(=O)NCCCC[C@H](NC(=O)CNC(=O)[C@H](CC(C)C)NC(=O)[C@@H](NC(=O)[C@@H]1CSSC[C@H](N)C(=O)N[C@@H](CO)C(=O)N[C@@H](CC(N)=O)C(=O)N[C@@H](CC(C)C)C(=O)N[C@@H](CO)C(=O)N[C@@H]([C@@H](C)O)C(=O)N1)C(C)C)C(=O)N[C@@H](CC(C)C)C(=O)N[C@@H](CO)C(=O)N[C@@H](CCC(N)=O)C(=O)N[C@@H](CCC(=O)O)C(=O)N[C@@H](CC(C)C)C(=O)N[C@@H](Cc1c[nH]cn1)C(=O)N[C@@H](CCCCNC(=O)CCCCCCCOCCOCCOCCOCCOCCOCCOCCOC)C(=O)N[C@@H](CC(C)C)C(=O)N[C@@H](CCC(N)=O)C(=O)N[C@H](C(=O)N[C@@H](Cc1ccc(O)cc1)C(=O)N1CCC[C@H]1C(=O)N[C@@H](CCCNC(=N)N)C(=O)N[C@H](C(=O)N[C@@H](CC(N)=O)C(=O)N[C@H](C(=O)NCC(=O)N[C@@H](CO)C(=O)NCC(=O)N[C@H](C(=O)N1CCC[C@H]1C(N)=O)[C@@H](C)O)[C@@H](C)O)[C@@H](C)O)[C@@H](C)O`, in data set [1] (15 min), the remaining at 0.25 h is 63%. In addition, the remaining at 0.5 h came out at 34% in data set [1] (30 min) and 87% in data set [2] (30 min). For the same molecule, the “% Remaining Following 0.5 U/mL Chymotrypsin Digest” value in the data set on Chymotrypsin (Buffered Formulation, 15 min) was 88% (2×) and 86%; in the data set on Chymotrypsin (Buffered Formulation, 30 min), 73% and 88% and 86%; in the data set with Chymotrypsin (Buffered Formulation, 60 min), 61% and 69% and 84%. The “% Remaining, Control” value with Chymotrypsin (Buffered Formulation, 60 min) is 116% and 104% and 101%; in the data set with Chymotrypsin (Non-Formulated, 60 min), 104% and 88% and 97% and 103%; in the data set on Trypsin (60 min), 103% and 100%; in the data set on Trypsin (120 min), 106% and 105% and 99%; in the data set with Trypsin (180 min), 104% and 99%. Also, the remaining at 1 h in data set [2] (60 min) amounted to 78%. Also, the remaining at 2 h in data set [2] (120 min) stood at 72%. The remaining at 3 h in data set [2] (180 min) stood at 81%.
With `CC(C)C[C@H](NC(=O)[C@H](CCCCN)NC(=O)CNC(=O)[C@H](CC(C)C)NC(=O)[C@@H](NC(=O)[C@@H]1CSSC[C@H](N)C(=O)N[C@@H](CO)C(=O)N[C@@H](CC(N)=O)C(=O)N[C@@H](CC(C)C)C(=O)N[C@@H](CO)C(=O)N[C@@H]([C@@H](C)O)C(=O)N1)C(C)C)C(=O)N[C@@H](CO)C(=O)N[C@@H](CCC(N)=O)C(=O)N[C@@H](CCC(=O)O)C(=O)N[C@@H](CC(C)C)C(=O)N[C@@H](Cc1c[nH]cn1)C(=O)N[C@@H](CCCCN)C(=O)N[C@@H](CC(C)C)C(=O)N[C@@H](CCC(N)=O)C(=O)N[C@H](C(=O)N[C@@H](Cc1ccc(O)cc1)C(=O)N1CCC[C@H]1C(=O)N[C@@H](CCCNC(=N)N)C(=O)N[C@H](C(=O)N[C@@H](CC(N)=O)C(=O)N[C@H](C(=O)NCC(=O)N[C@@H](CO)C(=O)NCC(=O)N[C@H](C(=O)N1CCC[C@H]1C(N)=O)[C@@H](C)O)[C@@H](C)O)[C@@H](C)O)[C@@H](C)O` [Salmon Calcitonin], the “% Remaining Following 0.5 U/mL Chymotrypsin Digest” value was 59% and 91% and 92% in the data set with Chymotrypsin (Buffered Formulation, 15 min); 54% and 86% and 87% in the data set with Chymotrypsin (Buffered Formulation, 30 min); 55% and 82% and 85% with Chymotrypsin (Buffered Formulation, 60 min); 62% and 35% in the data set on Chymotrypsin (Non-Formulated, 15 min); 30% and 26% and 40% and 13% and 42% with Chymotrypsin (Non-Formulated, 30 min); 1.6% and 5% and 12% and 1% in the data set on Chymotrypsin (Non-Formulated, 60 min). Moreover, the “% Remaining, Control” value with Chymotrypsin (Buffered Formulation, 60 min) was 102% and 98% and 103%. In addition, the “% Remaining following 1 U/mL Trypsin Digest” value in the data set with Trypsin (30 min) was 80% and 50%; with Trypsin (60 min), 66% and 28% and 69% and 76%; with Trypsin (120 min) it was 44% and 7% and 46% and 59%; with Trypsin (180 min) it was 2% and 31% and 46%.
